The results in this text go back to the nanobody polyreactivity screen of Harvey et al. (2022).

This data set in a line: yeast display, Sf9 membrane polyspecificity reagent, FACS + sequencing; frameworks hold sequencing errors. The method in brief:
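In a synthetic yeast display library (Saccharomyces cerevisiae BJ5465), nanobody expression was induced with galactose for 36–48 hours. FACS gates were set low and high (top ~1%) using anti-HA fluorescence for expression and streptavidin fluorescence for binding of the Sf9 membrane reagent. Each polyreactivity label is drawn from the gate of origin.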
With “QVQLVESGGGLVQAGGSLRLSCAASGRTFGSNAMGWYRQAPGKERELVAAITRRGGSTYYADSVKGRFTISRDNAMNTVYLQMNSLKPEDTAVYYCATDPVSTRGSDYWGQGTQVTVSS”, the “polyreactivity (PSR sort gate)” value is on record as “low polyreactivity”.

Turning to “QVQLVESGGGLVQAGGSLRLSCAASGRTFGSNAMGWYRQAPGKERELVAVITTSGGSTYYADSVKGRFTISRDNAKNTVYLQMNSLKPEDTAVYYCNKVGWYHNYYYWGQGTQVTVSS”, the “polyreactivity (PSR sort gate)” value was “high polyreactivity”. For “QVQLVESGGGLVQAGGSLRLSCAASGRTFGSYAMGWYRQAPGKERELVAAISKGGGSTYYADSVKGRFTISRDNAKNTVYLQMNSLKPEDTAVYYCAKRRFEYYYYWGQGTQVTVSS”, the “polyreactivity (PSR sort gate)” value is given as “high polyreactivity”. As for “QVQLVESGGGLVQAGGSLRLSCAASGRTFGTKTMGWYRQAPGKERELVAGISRSGGRTYYADSVKGRFTISRDNAKNTVYLQMNSLKPEDTAVYYCAAVSYYQPLRRIMDYWGQGTQVTVSS”, the “polyreactivity (PSR sort gate)” value is recorded as “high polyreactivity”.

With “QVQLVESGGGLVQAGGSLRLSCAASGRTFGTNAMGWYRQAPGKERELVAAISRRGGSTYYADSVKGRFTISRDNAKNTVYLQMNSLKPEDTAVYYCNVVTKFTGRGYDYWGQGTQVTVSS”, the “polyreactivity (PSR sort gate)” value is listed as “high polyreactivity”.

“QVQLVESGGGLVQAGGSLRLSCAASGRTFGTYAIVWYRPAPGKERELVAAITRRGGSTYYADSVKGRFTISRDNAKNTVYLQMNSLKPEDTAVYYCAARWFRYVPYSFPYLYKYDYWGQGTQVTVSS”: the “polyreactivity (PSR sort gate)” value was “low polyreactivity”.

As for “QVQLVESGGGLVQAGGSLRLSCAASGRTFGTYAMGWYRQAPGKERELVAAISRRGGTTYYADSVKGRFTISRDNAKNTVYLQMNSLKPEDTAVYYCARASWSITTVLSTMDYWGQGTQVTVSS”, the “polyreactivity (PSR sort gate)” value was “high polyreactivity”. Consider “QVQLVESGGGLVQAGGSLRLSCAASGRTFGTYAMGWYRQAPGKERELVAAISRRGGTTYYADSVKGRFTISRDNAKNTVYLQMNSLKPEDTAVYYCNVYRVSFSVVPLGYWGQGTQVTVSS”, for which the “polyreactivity (PSR sort gate)” value was “high polyreactivity”. For the sequence “QVQLVESGGGLVQAGGSLRLSCAASGRTFGTYAMGWYRQAPGKERELVASITSGDSTNYADSVKGRFTISRDNAKNTVYLQMNSLKPEDTAVYYCNADIEFYVLFAYWGQGTQVTVSS”, the “polyreactivity (PSR sort gate)” value is reported as “low polyreactivity”. As to “QVQLVESGGGLVQAGGSLRLSCAASGRTFGVNAMGWYRQAPGKERELVAAISYSGASTFYADSVKGRFTISRDNAKNTVYLQMNSLKPEDTAVYYCDARGYYGGFYYWGQGTQVTVSS”, the “polyreactivity (PSR sort gate)” value is recorded as “high polyreactivity”. For “QVQLVESGGGLVQAGGSLRLSCAASGRTFGVYMGWYRQAPGKERELVAVISSGDSTNYADSVKGRFTISRDNAKNTVYLQMNSLKPEDTAVYYCNAYGSDRLTLDDYWGQGTQVSVSS”, the “polyreactivity (PSR sort gate)” value is listed as “low polyreactivity”. Then “QVQLVESGGGLVQAGGSLRLSCAASGRTFGVYVMGWYRHAPGKERELVAFITISGGSTNYADSVKGRFTISRDNAKNTVYLQMNSLKPDDTAVYYCAARTYYGYDYWGQGNQVTVSS”, with “high polyreactivity”. On to “QVQLVESGGGLVQAGGSLRLSCAASGRTFGWNGMGWYRQAPGKERELVAVISSGGSTKYADSVKGRFTISRDNAKNTVYLQMNSLKPEDTAVYYCAKDWVRSGRRKMDYWGQGTQVTVSS”, for which the “polyreactivity (PSR sort gate)” value was “low polyreactivity”.

With “QVQLVESGGGLVQAGGSLRLSCAASGRTFGWYAMGWYRQAPGKERELVAAINNSGDITYYADSVKGRFTISRDNAKNTVYVQMNSLKPEDTAVYYCAATAGYYGYPSEYDYWGQGTQVTVSS”, the “polyreactivity (PSR sort gate)” value is “low polyreactivity”. For “QVQLVESGGGLVQAGGSLRLSCAASGRTFGWYSMGWYRQAPGKERELVAAINNSVDITYYSDSVKGRFTISRDNAKNSVYLQMNSLKPEDTAVYYCNRDARSGFVTIYATDYDYWGQGTQVTVSS”, the “polyreactivity (PSR sort gate)” value is recorded as “low polyreactivity”. In the case of “QVQLVESGGGLVQAGGSLRLSCAASGRTFGYNAMGWYRQAPGKERELVAAISRGDSTNYADSVKGRFTISRDNAKNTVYLQMNSLKPEDTAVYYCAAAFPRYRSRAIRVDYWGQGTQVTVSS”, the “polyreactivity (PSR sort gate)” value is “high polyreactivity”. In the case of “QVQLVESGGGLVQAGGSLRLSCAASGRTFGYNAMGWYRQAPGKERELVAAITWSGGSTYYADSVKGRFTISRDNAKNTVYLQMNSLKPEDTAVYYCNAYQRLSRAYGYWGQGTQVTVSS”, the “polyreactivity (PSR sort gate)” value was “high polyreactivity”.

With “QVQLVESGGGLVQAGGSLRLSCAASGRTFGYNGKGWYRQAPGKERELVAAINSGGNTNYAESVKGRFTISRDNAKNTVYLQMNSLKPEDTAVYYCAKYGTLYEPVPNEYDNWGQGTQVTVSS”, the “polyreactivity (PSR sort gate)” value is “low polyreactivity”. On to “QVQLVESGGGLVQAGGSLRLSCAASGRTFGYYAMGGYRQAPGKERELVAGIRSSGGSTYYADSVKGRFTISRDHAKNTVYLKMNSLIPEDTAVYYCAARLRSYHYRYGYDYWGQGTQVTVSS”, for which the “polyreactivity (PSR sort gate)” value is reported as “high polyreactivity”.

Turning to “QVQLVESGGGLVQAGGSLRLSCAASGRTFGYYAMGWYIQAPGKERELVAAISGSGGSTYYADSVKGRFTISRDNAKNTVYLQMNSLKPEDTEVYYCAARYIYYYAFGYNYWGQGTQVTVSS”, the “polyreactivity (PSR sort gate)” value is “high polyreactivity”. “QVQLVESGGGLVQAGGSLRLSCAASGRTFGYYAMGWYRQAPGKERELVAAISKSGGRTYYADSVKGRFTISRDNAKNTVYLQMNSLKPEDTAVYYCAADGGAIVPYYENYYWGQGTQVTVSS”: the “polyreactivity (PSR sort gate)” value is “high polyreactivity”.

Consider “QVQLVESGGGLVQAGGSLRLSCAASGRTFGYYAMGWYRQAPGKERELVASISSSGGNTYYADSVKGRFTISRDNAKNTVYLQMNSLKPEDTAVYYCAATYGWWPRDYYYWGQGTQVTVSS”, for which the “polyreactivity (PSR sort gate)” value is “high polyreactivity”. Take “QVQLVESGGGLVQAGGSLRLSCAASGRTFGYYAMGWYRQAPGKERELVATITSRGGDTSYADSVKGRFTISRDNAKNTVYLQMKSLKPEDTAVYYCAADRFQGRDDYWGQGTQVTVSS”: the “polyreactivity (PSR sort gate)” value is on record as “high polyreactivity”. Turning to “QVQLVESGGGLVQAGGSLRLSCAASGRTFGYYAMGWYRQAPGKERELVATITWSGGSTYYADSVKGRFTISRDNAKNTVYLQMNSLKPEDTAVYYCATGQYGYWYGTENDYWGQGTQVTVSS”, the “polyreactivity (PSR sort gate)” value is “low polyreactivity”. In the case of “QVQLVESGGGLVQAGGSLRLSCAASGRTFGYYAMGWYRQAPGNERELVASISQSGGRTYYADSVKGRFTISRDNAKNTVYLQMNSLKPVDTAVYLCNAVYYRRTGYEYWGQGSQVTVSS”, the “polyreactivity (PSR sort gate)” value is reported as “high polyreactivity”. Then “QVQLVESGGGLVQAGGSLRLSCAASGRTFGYYARGWYRQAPGKERELVADISSGGSTSYADSVKGRFTISRDNAKNTVYLQMNSLKPEDTAVYYCAADSHQNFSGWLRWPRMDYWGQGSQVTVSS”, with “low polyreactivity”; and “QVQLVESGGGLVQAGGSLRLSCAASGRTFGYYGLGWYRQAPGKERELVASINFSSGSTFYADSVKGRFTISRDNAKNTVYLQMNSLKPEDTAVYYCAARTDVGWYSRYGYWGQGTQVTVSS”, with “low polyreactivity”. Then “QVQLVESGGGLVQAGGSLRLSCAASGRTFHFDAMGWYRQAPGKERELVASITWSAVRTYYADSVKGRFTISRDNAKYTVYLQMNSLKQEDTAVYYCAIDWDYRLMDYWGQGTQVTVSS”, with “low polyreactivity”; and “QVQLVESGGGLVQAGGSLRLSCAASGRTFHGYALGWYRQAPGKERELVARINWSDGRTYYADSVKGRFTISRDNAKNTVYLQMNSLKPEDTAVYYCAADKTVSYAPAWYYYWGQGTQVTVSS”, with “low polyreactivity”. In the case of “QVQLVESGGGLVQAGGSLRLSCAASGRTFHKYAMGWYRQAPGKEWELVAAISNGGRTYYADSVKGRFTISRDNAKNTVYLQMNSLKPEDTAVYYCNADRTWKGRQYDYWGQGTQVTVSS”, the “polyreactivity (PSR sort gate)” value is “high polyreactivity”. As for “QVQLVESGGGLVQAGGSLRLSCAASGRTFHRYAMGWYRQAPGKERELVAAITSSGGSTNYADSVKGRFTISRDYAKNTVYLQMNSLKPEDTAVYYCATDRYRYTSHPWSRGFDYWGHGTQVTVSS”, the “polyreactivity (PSR sort gate)” value is reported as “low polyreactivity”.

Take “QVQLVESGGGLVQAGGSLRLSCAASGRTFHRYTMGWYRQAPGKERELVASISRSGGSTYYADSVKGRFTISRDNAKNTVYLQMNSLKPEDTAVYYCAARVSRRGTWYDYWGQGTQVTVSS”: the “polyreactivity (PSR sort gate)” value is “high polyreactivity”. On to “QVQLVESGGGLVQAGGSLRLSCAASGRTFHTYAIGWYRQAPGKERELVAAITRRGGSTYYADSVKGRFTISRDNAKNTVYLQMNSLKPEDTAVYYSAAPWYGYWGQGTQVTVSS”, for which the “polyreactivity (PSR sort gate)” value is given as “high polyreactivity”. Take “QVQLVESGGGLVQAGGSLRLSCAASGRTFHVYAMGWYRQAPGKERELVAAITWSGDSTYYADSVKGRFTISRDNAKNTVYLQMNSLNTEDTAVYYCAASKFWKYDYWGQGTQVTVSS”: the “polyreactivity (PSR sort gate)” value was “low polyreactivity”. As to “QVQLVESGGGLVQAGGSLRLSCAASGRTFHYNAMGWYRQAPGKERELVAAISRDGGSTDYADSVKGRFTISRDNAKNTVYLQMNSLKPEDTAVYYCAAPIGKQEFSRDYDYWGQGTQVTVSS”, the “polyreactivity (PSR sort gate)” value was “low polyreactivity”. “QVQLVESGGGLVQAGGSLRLSCAASGRTFIANAMGWYRQAPGKERELVAVITLNGGSTYYADSVKGRFTISRDNAKNTVYLQMNSLKPEDSAVYYCDAGRYYNLRATHGYWRQGTQVTVSS”: the “polyreactivity (PSR sort gate)” value is reported as “low polyreactivity”. With “QVQLVESGGGLVQAGGSLRLSCAASGRTFIGYAMAWYRQAPGKEWELVAAISARGGRTYYADSVKGRFTISRDNAKNTVYLQMNSLKPEETAVYYCAAVRVKHSGYDYWGQGTQVTVSS”, the “polyreactivity (PSR sort gate)” value is “high polyreactivity”. The result for “QVQLVESGGGLVQAGGSLRLSCAASGRTFIKNAMGWYRQAPGKERELVATISKRGGRTYYADSVKGRFTISRDNAKNTVYLQMNSLKPEDTAVYYCAARYRKSGLDKYWGQGTQVTVSS” reads “high polyreactivity”. Consider “QVQLVESGGGLVQAGGSLRLSCAASGRTFIKYAMGWYRPAPGKERALVAAISRNGGSTNYADSVKGRFTISRDNAKNTVDLQMNSLKPEDTAVYYCAAVGTVSSTVGYNYWGQGTQVTVSS”, for which the “polyreactivity (PSR sort gate)” value is recorded as “high polyreactivity”.

Turning to “QVQLVESGGGLVQAGGSLRLSCAASGRTFINYAKGWYRQAPGKERELVAAITTGGGGTYYADSVKGRFTISRDNAKNTVYLQMNSLKPEDTAVYYCAAEGTGYWGIVGYYYWGQGTQVTVSS”, the “polyreactivity (PSR sort gate)” value is given as “low polyreactivity”. With “QVQLVESGGGLVQAGGSLRLSCAASGRTFIPYAMGWYRQAPGKERELVAAIRTTGGSTNYADSVKGRFTISRDNAKNTVYLQMNSLKPEDTAVYYCAATSRQRPYDYWGQGTQVTVSS”, the “polyreactivity (PSR sort gate)” value is reported as “high polyreactivity”.
